Assay results reported in patent US20230135471A1, “UBIQUITIN VARIANTS WITH IMPROVED AFFINITY FOR 53BP1” (Integrated DNA Technologies, Inc., priority 2021, published 2023).

Assays:
[1] = target: T1, fragment of 53BP1 (a.a. 1221-1718) (Homo sapiens, UniProt Q12888); experiment: Individual two-hybrid screen of amino acid changes, percent GFP (reporter) positive cells by flow cytometry; type: cell-based; set-up: key to Dunnett's Multiple Comparison Summary: NS means not significant; *, **, ***, **** reflects qualitative measure of the strength of association the Ubv has with 53BP1 compared to the similar association of i53 with 53BP1.; *, **, ***, **** reflects qualitative measure of the strength of association the Ubv has with 53BP1 compared to the similar association of i53 with 53BP1.; *, **, ***, **** reflects qualitative measure of the strength of association the Ubv has with 53BP1 compared to the similar association of i53 with 53BP1.; *, **, ***, **** reflects qualitative measure of the strength of association the Ubv has with 53BP1 compared to the similar association of i53 with 53BP1; settings: for Dunnett's Multiple Comparison Summary: comparison i53 vs. i53 + amino acid change; for Percent GFP Positive Rep 1: replicate 1, amino acid change in i53 fusion protein plasmid; for Percent GFP Positive Rep 2: replicate 2; for Percent GFP Positive Rep 3: replicate 3
T1 construct: a fragment of 53BP1 (a.a. 1221-1718); expressed in transfected cells; host or cells: E. coli DHM1
Text: (§1) In order to identify mutations that improve the affinity of i53 for 53BP1, the bacterial adenylate cyclase two-hybrid system (BACTH system) was used to screen for interaction between the two proteins. This method makes use of a B. pertussis calmodulin-dependent adenylate cyclase toxin. The catalytic domain of the toxin can be separated into two fragments (T18 and T25) that are able to associate in the presence of calmodulin but have minimal activity in its absence. If bait and prey proteins fused to T18 and T25 interact, then the catalytic activity is restored and cAMP is produced. In E. coli, cAMP binds to catabolite activator protein (CAP) that acts as a transcriptional activator for several genes. By expressing these fusion proteins in an E. coli strain that lacks endogenous adenylate cyclase and naturally lacks calmodulin, cAMP regulated protein expression can be used as a readout of bait-prey interaction. We engineered the screen so that eGFP will be expressed under the control of a cAMP-regulated promoter. The coding sequence for a fragment of 53BP1 (a.a. 1221-1718) containing the i53 interacting regions and i53 were cloned into T18 and T25 adenylate cyclase expression plasmids such that fusion proteins of each would be expressed. If a Ubv interacts with 53BP1, the T18 and T25 fragments will be brought together, adenylate cyclase activity will be restored, cAMP will be produced, and some portion of the bacterial population will be GFP positive.
(§2) There was a high degree of correlation between the two experiments and between replicates (FIG. 2). From these screens, about 230 amino acid changes were identified for which the average enrichment was positive for at least one of the experiments (Table 1). […] To validate that the amino acid changes identified from the pooled screen are reproducible on an individual basis, 24 amino acid changes identified from this screen were introduced individually into the i53 fusion protein plasmid and tested by flow cytometry for their effect on the percent positive population relative to i53 (FIG. 3). There was a strong correlation between the enrichment measured from the pooled screen and the percent reporter positive cells when mutations were screened individually.

[2] = target: T1, fragment of 53BP1 (a.a. 1221-1718); experiment: BACTH two-hybrid pooled screen in E. coli, FACS sorting of GFP positive cells and NGS enrichment of i53 amino acid changes; type: cell-based; settings: i53 (SEQ ID NO: 2) background; for Experiment 1 - high selection pressure Average Enrichment / Experiment 2-low selection pressure Average Enrichment / Average Enrichment: average of Rep 1 and Rep 2; for Experiment 1 - high selection pressure Average Enrichment / Experiment 2-low selection pressure Average Enrichment: log 2 enrichment; for Experiment 1 - high selection pressure Rep 1 Enrichment / Experiment 2-low selection pressure Rep 1 Enrichment: replicate 1; for Experiment 1 - high selection pressure Rep 1 Enrichment / Experiment 1 - high selection pressure Rep 2 Enrichment / Experiment 2-low selection pressure Rep 1 Enrichment / Experiment 2-low selection pressure Rep 2 Enrichment: enrichment = log 2 of positive/input read count ratio normalised to synonymous changes; for Experiment 1 - high selection pressure Rep 2 Enrichment / Experiment 2-low selection pressure Rep 2 Enrichment: replicate 2; for Rep 1 Enrichment / Rep 2 Enrichment: log2 enrichment of amino acid change in GFP positive vs input, normalised to synonymous changes; for Average Enrichment: log2 enrichment
Text: as §1
A plasmid library was made consisting of Ubv-adenylate cyclase fragment fusion protein plasmids that had on average a single codon within the i53 coding region exchanged for a random NNK codon. Plasmids were transformed into DHM1 cells that lack endogenous adenylate cyclase and contain the plasmid for expression of the 53BP1 fragment fused to one of the adenylate cyclase fragments. Expression of eGFP was used as a readout of bait-prey interaction using fluorescence activated cell sorting (FACS) to sort for GFP positive bacteria. Plasmid DNA was isolated from both the sorted GFP positive bacteria (Positive) and from the original pre-sort population (Input) and was sequenced using NGS. Counts were merged for mutations that result in the same amino acid change using Enrich2 [25]. Enrichment was calculated as enrichment=log 2((read count for an amino acid change in the positive population/read count for an amino acid change in the input)/(synonymous change read count in the positive population/synonymous change read count in the input)). […] For each experiment, DHM1 cells were transformed with the Ubv fusion protein plasmid library in two separate replicates using a gene pulser (Bio-Rad). The i53-adenylate cyclase fragment fusion protein (published i53 peptide, SEQ ID NO:2) plasmid was also introduced separately as a control to estimate selection pressure. Cells were then grown and sorted using FACS and GFP positive cells were collected. Two separate experiments were conducted on separate days using different levels of selection pressure resulting in a different percent GFP positive for the i53 population (i.e. for cells that express published i53 peptide (SEQ ID NO:2) fused to one of the adenylate cyclase fragments).
as §2

[3] = Experiment 1 - high selection pressure
[4] = Experiment 2 - low selection pressure

T1 sequence (Q12888 1221-1718): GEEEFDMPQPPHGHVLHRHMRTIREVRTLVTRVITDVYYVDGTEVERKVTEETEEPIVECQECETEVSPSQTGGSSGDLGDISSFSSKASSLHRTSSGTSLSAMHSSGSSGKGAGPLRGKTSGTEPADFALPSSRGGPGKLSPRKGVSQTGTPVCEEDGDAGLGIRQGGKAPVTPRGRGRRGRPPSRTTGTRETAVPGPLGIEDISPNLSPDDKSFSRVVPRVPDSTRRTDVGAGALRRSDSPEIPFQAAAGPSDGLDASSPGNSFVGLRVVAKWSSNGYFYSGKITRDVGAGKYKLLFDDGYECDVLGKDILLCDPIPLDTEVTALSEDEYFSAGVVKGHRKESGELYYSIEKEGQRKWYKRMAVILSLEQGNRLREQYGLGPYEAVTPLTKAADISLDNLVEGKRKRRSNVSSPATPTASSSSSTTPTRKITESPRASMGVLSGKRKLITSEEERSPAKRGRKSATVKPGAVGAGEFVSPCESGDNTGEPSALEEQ

Dunnett's Multiple Comparison Summary [1]	Percent GFP Positive Rep 1 [1]	Percent GFP Positive Rep 2 [1]	Percent GFP Positive Rep 3 [1]	Experiment 1 - high selection pressure Average Enrichment [2]	Experiment 1 - high selection pressure Rep 1 Enrichment [2]	Experiment 1 - high selection pressure Rep 2 Enrichment [2]	Experiment 2-low selection pressure Average Enrichment [2]	Experiment 2-low selection pressure Rep 1 Enrichment [2]	Experiment 2-low selection pressure Rep 2 Enrichment [2]	Rep 1 Enrichment [2, 3]	Rep 2 Enrichment [2, 3]	Average Enrichment [2, 3]	Rep 1 Enrichment [2, 4]	Rep 2 Enrichment [2, 4]	Average Enrichment [2, 4]	Substance
ns	15.9%	17.6%	17.2%	–	–	–	–	–	–	1.10	1.02	1.06	0.75	0.59	0.67	I61L: i53 with amino acid change I61L
ns	18.8%	13.6%	17.7%	–	–	–	–	–	–	0.85	1.15	1.00	0.97	0.80	0.88	S49L: i53 with amino acid change S49L
ns	20.9%	14.2%	12.3%	–	–	–	–	–	–	0.99	1.25	1.12	0.96	0.70	0.83	V26I: i53 with amino acid change V26I
ns	16.9%	14%	14.5%	–	–	–	–	–	–	1.20	1.08	1.14	0.84	0.66	0.75	K48T: i53 with amino acid change K48T

The next lines start with the substance.

Substance	Dunnett's Multiple Comparison Summary [1]	Percent GFP Positive Rep 1 [1]	Percent GFP Positive Rep 2 [1]	Percent GFP Positive Rep 3 [1]	Experiment 1 - high selection pressure Average Enrichment [2]	Experiment 1 - high selection pressure Rep 1 Enrichment [2]	Experiment 1 - high selection pressure Rep 2 Enrichment [2]	Experiment 2-low selection pressure Average Enrichment [2]	Experiment 2-low selection pressure Rep 1 Enrichment [2]	Experiment 2-low selection pressure Rep 2 Enrichment [2]	Rep 1 Enrichment [2, 3]	Rep 2 Enrichment [2, 3]	Average Enrichment [2, 3]	Rep 1 Enrichment [2, 4]	Rep 2 Enrichment [2, 4]	Average Enrichment [2, 4]
H68M: i53 with amino acid change H68M	***	28.6%	23.5%	28.3%	2.28	2.53	2.04	1.28	0.99	1.58	–	–	–	–	–	–
L73M: i53 with amino acid change L73M	****	36.2%	29.2%	39.5%	2.61	2.69	2.52	1.43	1.58	1.28	–	–	–	–	–	–
i53 K6R: i53 with K6R	**	19.8%	27%	24%	–	–	–	–	–	–	1.84	1.91	1.87	1.22	0.80	1.01
A44T: i53 with amino acid change A44T	ns	17.5%	7.7%	12.8%	–	–	–	–	–	–	1.70	0.87	1.28	0.75	0.59	0.67
K29M: i53 with amino acid change K29M	ns	23.9%	16.5%	17.8%	–	–	–	–	–	–	1.72	1.48	1.60	1.23	0.57	0.90
L67K: i53 with amino acid change L67K	ns	24.2%	11.2%	21.5%	–	–	–	–	–	–	2.08	1.93	2.01	1.40	0.39	0.89
